Laboratory results: US20100183614A1 (COVALENT BIOSCIENCE, published 2010)

Molecular target: gp120 of HIV strain 97ZA009 (clade C, R5) (HIV-1 strain 97ZA009)
Test: cell-based or functional assay

B1: scFv JL427 (scFv)
scFv: QSVLTQPPSVSGAPGQRVTISCSGSSSNFGLNYVYWYQHFPGTAPKLLIYRNDQRPLGVPARFSGSKSGTSASLAISGLRSEDEADYYCQSYDNSLSGWVFGGGTQLTVLGSSGGGGSGGGGSGGSALQVQLQQSGGGLVQPGRSLRLSCAASGFTFSSYGMHWVRQAPGKGLEWVSYIGRSGSHTNYADSVKGRFTISRDNSKNTLYLQINSLRAEDTAVYYCARGLPNYGMDIWGQGTTVTVSSGSASAPTLFPAAAHHHHHHGAAEQKLISEEDLNGAA
- HIV neutralization IC50, ng/mL (97ZA009, PBMC): 300 ng/mL
